Results as given in the supplement of paper PMC5998384.

How the values were obtained:
HeLa Kyoto [1] = assay: melting temperature (median over replicates), in situ; higher = more thermally stable
HeLa Kyoto [2] = assay: solubility in G1/S (NP-40 vs SDS abundance) (log2 ratio); higher = more soluble; conditions: cell cycle stage: G1/S
HeLa Kyoto [3] = assay: solubility change mitosis vs G1/S (difference of NP-40 vs SDS log2 ratios) (log2 ratio difference); higher = more soluble in mitosis
HeLa Kyoto [4] = assay: thermal stability score vs G1/S (z-score of summed log2 fold changes over temperatures); higher = more thermally stable than in G1/S
[5] = cell cycle stage: early G1 (4.5 h after nocodazole release)
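For melting temperature (median over replicates), in situ in this document: HeLa Kyoto cells synchronized by double thymidine or nocodazole block, proteins quantified by TMT10plex mass spectrometry, three independent biological replicates.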
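For solubility change mitosis vs G1/S (difference of NP-40 vs SDS log2 ratios) in this document: synchronized HeLa Kyoto cells (double thymidine block for G1/S, nocodazole release for mitosis), protein amounts in NP-40 versus SDS lysates quantified by mass spectrometry, three biological replicates.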
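For solubility in G1/S (NP-40 vs SDS abundance) in this document: HeLa Kyoto cells arrested at G1/S by double thymidine block, proteins quantified by TMT10plex mass spectrometry in mild NP-40 versus SDS extracts, three biological replicates.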
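For thermal stability score vs G1/S (z-score of summed log2 fold changes over temperatures) in this document: synchronized HeLa Kyoto cells, proteins quantified by TMT10plex mass spectrometry, three biological replicates, mitosis taken 0.5 h after nocodazole release, G1/S directly after double thymidine block.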

| Sequence | melting temperature (HeLa Kyoto [1]; cell cycle stage: G1/S) | melting temperature (HeLa Kyoto [1]; cell cycle stage: mitosis) | solubility in G1/S (log2) (HeLa Kyoto [2]) | solubility change mitosis (log2) (HeLa Kyoto [3]) | thermal stability score (HeLa Kyoto [4]; [5]) | thermal stability score (HeLa Kyoto [4]; cell cycle stage: mitosis) |
| --- | --- | --- | --- | --- | --- | --- |
| MSFLKSFPPPGPAEGLLRQQPDTEAVLNGKGLGTGTLYIAESRLSWLDGSGLGFSLEYPTISLHALSRDRSDCLGEHLYVMVNAKFEEESKEPVADEEEEDSDDDVEPITEFRFVPSDKSALEAMFTAMCECQALHPDPEDEDSDDYDGEEYDVEAHEQGQGDIPTFYTYEEGLSHLTAEGQATLERLEGMLSQSVSSQYNMAGVRTEDSIRDYEDGMEVDTTPTVAGQFEDADVDH [CLNS1A] | 51.7 °C | 52.6 °C | -0.106 | 0.0376 | -0.798 | -0.57 |
| MSFRKVNIIILVLAVALFLLVLHHNFLSLSSLLRNEVTDSGIVGPQPIDFVPNALRHAVDGRQEEIPVVIAASEDRLGGAIAAINSIQHNTRSNVIFYIVTLNNTADHLRSWLNSDSLKSIRYKIVNFDPKLLEGKVKEDPDQGESMKPLTFARFYLPILVPSAKKAIYMDDDVIVQGDILALYNTALKPGHAAAFSEDCDSASTKVVIRGAGNQYNYIGYLDYKKERIRKLSMKASTCSFNPGVFVANLTEWKRQNITNQLEKWMKLNVEEGLYSRTLAGSITTPPLLIVFYQQHSTIDPMWNVRHLGSSAGKRYSPQFVKAAKLLHWNGHLKPWGRTASYTDVWEKWYIPDPTGKFNLIRRYTEISNIK [GLT8D1] | 53 °C | 53 °C | 0.144 | 0.024 | 3.31 | 5.82 |
| MSFRKVVRQSKFRHVFGQPVKNDQCYEDIRVSRVTWDSTFCAVNPKFLAVIVEASGGGAFLVLPLSKTGRIDKAYPTVCGHTGPVLDIDWCPHNDEVIASGSEDCTVMVWQIPENGLTSPLTEPVVVLEGHTKRVGIIAWHPTARNVLLSAGCDNVVLIWNVGTAEELYRLDSLHPDLIYNVSWNHNGSLFCSACKDKSVRIIDPRRGTLVAEREKAHEGARPMRAIFLADGKVFTTGFSRMSERQLALWDPENLEEPMALQELDSSNGALLPFYDPDTSVVYVCGKGDSSIRYFEITEEPPYIHFLNTFTSKEPQRGMGSMPKRGLEVSKCEIARFYKLHERKCEPIVMTVPRKSDLFQDDLYPDTAGPEAALEAEEWVSGRDADPILISLREAYVPSKQRDLKISRRNVLSDSRPAMAPGSSHLGAPASTTTAADATPSGSLARAGEAGKLEEVMQELRALRALVKEQGDRICRLEEQLGRMENGDA [CORO1B] | 51.1 °C | 50.6 °C | -0.0585 | -0.0904 | -0.395 | -0.683 |
| MSFVAYEELIKEGDTAILSLGHGAMVAVRVQRGAQTQTRHGVLRHSVDLIGRPFGSKVTCGRGGWVYVLHPTPELWTLNLPHRTQILYSTDIALITMMLELRPGSVVCESGTGSGSVSHAIIRTIAPTGHLHTVEFHQQRAEKAREEFQEHRVGRWVTVRTQDVCRSGFGVSHVADAVFLDIPSPWEAVGHAWDALKVEGGRFCSFSPCIEQVQRTCQALAARGFSELSTLEVLPQVYNVRTVSLPPPDLGTGTDGPAGSDTSPFRSGTPMKEAVGHTGYLTFATKTPG [TRMT61A] | 55.4 °C | 57.5 °C | -0.0252 | -0.00636 | 0.944 | -0.546 |
| MSGAEEAGGGGPAAGPAGSVPAGVGVGVGAGPGAAAGQAAAAALGEAAGPGLPDEAGLAGARQLQLQEAAGDPDAPPKKRLRAAEAAEAAAAAAAAGSGKLEERLYSVLCCTVCLDLPKASVYQCTNGHLMCAGCFIHLLADARLKEEQATCPNCRCEISKSLCCRNLAVEKAVSELPSECGFCLRQFPRSLLERHQKEECQDRVTQCKYKRIGCPWHGPFHELTVHEAACAHPTKTGSELMEILDGMDQSHRKEMQLYNSIFSLLSFEKIGYTEVQFRPYRTDDFITRLYYETPRFTVLNQTWVLKARVNDSERNPNLSCKRTLSFQLLLKSKVTAPLECSFLLLKGPYDDVRISPVIYHFVFTNESNETDYVPLPIIDSVECNKLLAAKNINLRLFLFQIQK [CYHR1] | 54 °C | 55 °C | 0.166 | -0.0838 | -1.75 | -2.18 |
| MSGASSSEQNNNSYETKTPNLRMSEKKCSWASYMTNSPTLIVMIGLPARGKTYVSKKLTRYLNWIGVPTKVFNLGVYRREAVKSYKSYDFFRHDNEEAMKIRKQCALVALEDVKAYLTEENGQIAVFDATNTTRERRDMILNFAEQNSFKVFFVESVCDDPDVIAANILEVKVSSPDYPERNRENVMEDFLKRIECYKVTYRPLDPDNYDKDLSFIKVINVGQRFLVNRVQDYIQSKIVYYLMNIHVQPRTIYLCRHGESEFNLLGKIGGDSGLSVRGKQFAQALRKFLEEQEITDLKVWTSQLKRTIQTAESLGVPYEQWKILNEIDAGVCEEMTYAEIEKRYPEEFALRDQEKYLYRYPGGESYQDLVQRLEPVIMELERQGNVLVISHQAVMRCLLAYFLDKGADELPYLRCPLHTIFKLTPVAYGCKVETIKLNVEAVNTHRDKPTNNFPKNQTPVRMRRNSFTPLSSSNTIRRPRNYSVGSRPLKPLSPLRAQDMQEGAD [PFKFB2] | 53.9 °C | 53.3 °C | 0.16 | -0.071 | 0.139 | 0.693 |
| MSGEDEQQEQTIAEDLVVTKYKMGGDIANRVLRSLVEASSSGVSVLSLCEKGDAMIMEETGKIFKKEKEMKKGIAFPTSISVNNCVCHFSPLKSDQDYILKEGDLVKIDLGVHVDGFIANVAHTFVVDVAQGTQVTGRKADVIKAAHLCAEAALRLVKPGNQNTQVTEAWNKVAHSFNCTPIEGMLSHQLKQHVIDGEKTIIQNPTDQQKKDHEKAEFEVHEVYAVDVLVSSGEGKAKDAGQRTTIYKRDPSKQYGLKMKTSRAFFSEVERRFDAMPFTLRAFEDEKKARMGVVECAKHELLQPFNVLYEKEGEFVAQFKFTVLLMPNGPMRITSGPFEPDLYKSEMEVQDAELKALLQSSASRKTQKKKKKKASKTAENATSGETLEENEAGD [PA2G4] | 51.5 °C | 52.1 °C | -0.0146 | -0.108 | -0.392 | 2 |
| MSGGASATGPRRGPPGLEDTTSKKKQKDRANQESKDGDPRKETGSRYVAQAGLEPLASGDPSASASHAAGITGSRHRTRLFFPSSSGSASTPQEEQTKEGACEDPHDLLATPTPELLLDWRQSAEEVIVKLRVGVGPLQLEDVDAAFTDTDCVVRFAGGQQWGGVFYAEIKSSCAKVQTRKGSLLHLTLPKKVPMLTWPSLLVEADEQLCIPPLNSQTCLLGSEENLAPLAGEKAVPPGNDPVSPAMVRSRNPGKDDCAKEEMAVAADAATLVDEPESMVNLAFVKNDSYEKGPDSVVVHVYVKEICRDTSRVLFREQDFTLIFQTRDGNFLRLHPGCGPHTTFRWQVKLRNLIEPEQCTFCFTASRIDICLRKRQSQRWGGLEAPAARVGGAKVAVPTGPTPLDSTPPGGAPHPLTGQEEARAVEKDKSKARSEDTGLDSVATRTPMEHVTPKPETHLASPKPTCMVPPMPHSPVSGDSVEEEEEEEKKVCLPGFTGLVNLGNTCFMNSVIQSLSNTRELRDFFHDRSFEAEINYNNPLGTGGRLAIGFAVLLRALWKGTHHAFQPSKLKAIVASKASQFTGYAQHDAQEFMAFLLDGLHEDLNRIQNKPYTETVDSDGRPDEVVAEEAWQRHKMRNDSFIVDLFQGQYKSKLVCPVCAKVSITFDPFLYLPVPLPQKQKVLPVFYFAREPHSKPIKFLVSVSKENSTASEVLDSLSQSVHVKPENLRLAEVIKNRFHRVFLPSHSLDTVSPSDTLLCFELLSSELAKERVVVLEVQQRPQVPSVPISKCAACQRKQQSEDEKLKRCTRCYRVGYCNQLCQKTHWPDHKGLCRPENIGYPFLVSVPASRLTYARLAQLLEGYARYSVSVFQPPFQPGRMALESQSPGCTTLLSTGSLEAGDSERDPIQPPELQLVTPMAEGDTGLPRVWAAPDRGPVPSTSGISSEMLASGPIEVGSLPAGERVSRPEAAVPGYQHPSEAMNAHTPQFFIYKIDSSNREQRLEDKGDTPLELGDDCSLALVWRNNERLQEFVLVASKELECAEDPGSAGEAARAGHFTLDQCLNLFTRPEVLAPEEAWYCPQCKQHREASKQLLLWRLPNVLIVQLKRFSFRSFIWRDKINDLVEFPVRNLDLSKFCIGQKEEQLPSYDLYAVINHYGGMIGGHYTACARLPNDRSSQRSDVGWRLFDDSTVTTVDESQVVTRYAYVLFYRRRNSPVERPPRAGHSEHHPDLGPAAEAAASQASRIWQELEAEEEPVPEGSGPLGPWGPQDWVGPLPRGPTTPDEGCLRYFVLGTVAALVALVLNVFYPLVSQSRWR [USP19] | 51.1 °C | 51 °C | -0.0565 | -0.0948 | -0.212 | -0.109 |
| MSGGLLKALRSDSYVELSQYRDQHFRGDNEEQEKLLKKSCTLYVGNLSFYTTEEQIYELFSKSGDIKKIIMGLDKMKKTACGFCFVEYYSRADAENAMRYINGTRLDDRIIRTDWDAGFKEGRQYGRGRSGGQVRDEYRQDYDAGRGGYGKLAQNQ [NCBP2] | 51.4 °C | 51.8 °C | -0.118 | 0.26 | -0.145 | -1.78 |
| MSGNGNAAATAEENSPKMRVIRVGTRKSQLARIQTDSVVATLKASYPGLQFEIIAMSTTGDKILDTALSKIGEKSLFTKELEHALEKNEVDLVVHSLKDLPTVLPPGFTIGAICKRENPHDAVVFHPKFVGKTLETLPEKSVVGTSSLRRAAQLQRKFPHLEFRSIRGNLNTRLRKLDEQQEFSAIILATAGLQRMGWHNRVGQILHPEECMYAVGQGALGVEVRAKDQDILDLVGVLHDPETLLRCIAERAFLRHLEGGCSVPVAVHTAMKDGQLYLTGGVWSLDGSDSIQETMQATIHVPAQHEDGPEDDPQLVGITARNIPRGPQLAAQNLGISLANLLLSKGAKNILDVARQLNDAH [HMBS] | 57.6 °C | 57.3 °C | 0.328 | -0.0671 | -1.68 | -1.79 |
| MSGTNLDGNDEFDEQLRMQELYGDGKDGDTQTDAGGEPDSLGQQPTDTPYEWDLDKKAWFPKITEDFIATYQANYGFSNDGASSSTANVEDVHARTAEEPPQEKAPEPTDARKKGEKRKAESGWFHVEEDRNTNVYVSGLPPDITVDEFIQLMSKFGIIMRDPQTEEFKVKLYKDNQGNLKGDGLCCYLKRESVELALKLLDEDEIRGYKLHVEVAKFQLKGEYDASKKKKKCKDYKKKLSMQQKQLDWRPERRAGPSRMRHERVVIIKNMFHPMDFEDDPLVLNEIREDLRVECSKFGQIRKLLLFDRHPDGVASVSFRDPEEADYCIQTLDGRWFGGRQITAQAWDGTTDYQVEETSREREERLRGWEAFLNAPEANRGLRRSDSVSASERAGPSRARHFSEHPSTSKMNAQETATGMAFEEPIDEKKFEKTEDGGEFEEGASENNAKESSPEKEAEEGCPEKESEEGCPKRGFEGSCSQKESEEGNPVRGSEEDSPKKESKKKTLKNDCEENGLAKESEDDLNKESEEEVGPTKESEEDDSEKESDEDCSEKQSEDGSEREFEENGLEKDLDEEGSEKELHENVLDKELEENDSENSEFEDDGSEKVLDEEGSEREFDEDSDEKEEEEDTYEKVFDDESDEKEDEEYADEKGLEAADKKAEEGDADEKLFEESDDKEDEDADGKEVEDADEKLFEDDDSNEKLFDEEEDSSEKLFDDSDERGTLGGFGSVEEGPLSTGSSFILSSDDDDDDI [HTATSF1] | 47.4 °C | 49.4 °C | -0.256 | -0.0715 | 5.21 | 9.34 |
